Data reported in publication PMC9835956 (Science (New York, N.y.), 2021).

B1: S2L20 mAb (antibody, V domains shown)
VH: EVQLVESGGGVVQPGGSLRLSCAASGFTFNSYGMHWVRQAPGKGLEWVAFIRYDGGNKYYADSVKGRFTISRDNSKNTLYLQMKSLRAEDTAVYYCANLKDSRYSGSYYDYWGQGTLVTVS
VL: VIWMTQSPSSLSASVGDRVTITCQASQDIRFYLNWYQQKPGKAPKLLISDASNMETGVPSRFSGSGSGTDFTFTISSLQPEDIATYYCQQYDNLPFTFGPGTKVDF
B2: S2X333 mAb (NTD-specific, neutralizing, antigenic site i) (antibody, V domains shown)
VH: VQLVESGGGVVQPGRSLRLSCAASGFTFSNYGMHWVRQAPGKGLEWVAVIWYDGSNKFYADSVKGRFTISRDNSKNSLYLQMNSLRAEDTAVYFCARAFPDSSSWSGFTIDYWGQGTLVTV
VL: YELTQPPSVSTARITCGGNNIERKSVHWCQQKPGQAPALVVYDDSDRPSGIPERFSGSNSGNTATLTISRVEAGDEADYYCQVWDSGSDQVIFGGGTKLT

Columns and labels:
[1] = molecular target: SARS-CoV-2 WT NTD with the native signal peptide (SARS-CoV-2, Wuhan-Hu-1 (wild type), UniProt P0DTC2); test: ELISA; settings: both partners purified
[2] = molecular target: SARS-CoV-2 S N-terminal domain (NTD), wild type, with the native signal peptide (SARS-CoV-2, Wuhan-Hu-1 (wild type), UniProt P0DTC2); test: ELISA; settings: both partners purified

Binder	binding result [1]	binding result [2]
B1	binds	–
B2	–	binds
